Measurements as given in the DeepSol protein solubility set.

assay: soluble on expression in E. coli; label from the status in PepcDB or PDB records

Soluble on expression in E. coli, soluble:
ASNIYKIKEENKNEDICFIAGIGDTNGYGWGIAKELSKRNVKIIFGIWPPVYNIFMKNYKNGKFDNDMIIDKDKKMNILDMLPFDASFDTANDIDEETKNNKRYNMLQNYTIEDVANLIHQKYGKINMLVHSLANAKEVQKDLLNTSRKGYLDALSKSSYSLISLCKYFVNIMKPQSSIISLTYHASQKVVPGYGGGMSSAKAALESDTRVLAYHLGRNYNIRINTISAGPLKSRAATAINKLNNTYENNTNQNKNRNSHDVHNIMNNSGEKEEKKNSASQNYTFIDYAIEYSEKYAPLRQKLLSTDIGSVASFLLSRESRAITGQTIYVDNGLNIMFLPDDIYRNENE
MGRRGMWYPLAAMKGVLEALHQGDYDTAIDLLTRKALFGREREAKEAWLLLAEVYALYGEEGLEKAHHALEEAYALGGLEYDPLYRSLLAELLALEGRPEREVLPLFLPSRDPRVRYHQAQALFYLGRLEEALEALEAGLPPHLAWRAEGLKGRILERLGRHGEAALAYERGAELALGLERYWLLLDAAAMWLEAGEGERALLALKEAEAAVGEEDPEDAATRHYLLARAHLLLGNPGLALEEIRKALALEEESGHKAYGTPLVEGQALLQLGRYEEAMASFREALARADAGERPHVLHEMGVAALDHGAYPEAEEHLRALVREEGYPYLAQAYADLAEALYRQGRYQEAEAAAREAVARGAVAAGELVLGHVAYDLLHLEEALEHYRKAAESAEEGSREWVGAQEMVVDTLAQLGYRFPEEMVRRGQAVLPYLHPADEWHAALTAYVERAQALLREGKRLN
MTIPEQNNNPIVEISIPVSTQQALEKVNATKSAWLEARRQQKAAADNIATIRQRRAEMEATTNALNEEWRTLFRESQGVVSKEMKKLRTEIALGRETLEDFDELLAAQESENALLPQEAAELAGKYIHAHDTLVGIRAKQIWEDFMQSHGKALIQTLSLLKSTMGREASAVVGVVHSVNDPDTLLKDFIHKHITRPALTNDAMPEQDPVFKLAGVAPDYAARLDFSNKLSPAAMHKMKVRQERAEKEKAV
MKFEDLLATNKQVQFAHAATQHYKSVKTPDFLEKDPHHKKFHNADGLNQQGSSTPSTATDANAASTASTHTNTTTFKRHIVAVDDISKMNYEMIKNSPGNVITNANQDEIDISTLKTRLYKDNLYAMNDNFLQAVNDQIVTLNAAEQDQETEDPDLSDDEKIDILTKIQENLLEEYQKLSQKERKWFILKELLLDANVELDLFSNRGRKASHPIAFGAVAIPTNVNANSLAFNRTKRRKINKNGLLENIL
MKIGIIGAGLGGLLSGAILSKEHSITIYEKLPFVGGRFTNIPYKGFQLTTGALHMIPHGNEGYLAQTLRRAGSNVKIVNSEPDGYFRINGKNHEYKDIFGLVSAKDKLKALKLAASLKLGKIDKNMPFGEFLEDIPLALDVGNSFSGWALSLNAYDTPMSEIIEISKLYHKFGGPGIPVGGCKGVIDSLVEIINKNGGKIYTSHAIEKIEVEENNVFLDSEQFDIVISNASPKLTEKMSNIKFIEKEPVPSKGIKINVASKLSLVDGASVIFTTDCERINGLNQPSNVDRSLAKEDYNLIMLHATQIKNNTKEEISLALNDIESLFGGKDYEVISIQSYGNGWPVNHASNGTDLNPIVKDNLLLVGDGVKGVGGIEVEGVAMSVIAVLNHIEKLKK
MATLYDVPPEELIEALTETLADEDDIEAPDWAEFTKTGVDRELPPEQEDFWTRRAASLLRKVAVDGPVGVNALRSEYGTSKQGTTRYRVRPHQKTKGSGNIIRTALQQLEDAGYVETSENDGRRVTGDGRSLLDDTAGDLLTELDRPELERYALEHHHHHH

Soluble on expression in E. coli, not soluble:
MIYSMTAYARKEVKGNWGSAVWEIRSVNQRYLETYFRMPEQFRALEPVLRERFRKRLARGKVECSLRFEANPAAKAELSINEALATQVIKAAEQVMHMTGELSRINPFQVMQWPGVMETPEQNMDEVNKELLAAFDEAISEFIEARGREGDNMKALIEQRLDAITAEVVKVRARMPEILEWQRERLFSKFEDAKIELDASRVEQELILLAQKSDVAEELDRLDSHVKETTNILKKGGAVGRRLDFMMQEFNRESNTLASKSISTDITASGVELKVLIEQMREQIQNIE
MGSDKIHHHHHHMVGMLERTIAGLQRNNMAGYFVHNRQELMALLSGLMEKGQTVGCGDSVTLEELGVFDFLRKGDYIFYDKYVPGLTSEDKRRLYIQNFAADTFITGTNAVTTDGKLFNIDGNGSRVAPMIYGPRQVIVVVGTNKITEDVESAIQRVRQIAAPMDAKRLKKETPCTKLNRCVDCRHPQRICNDFVLITGQFVKDRIKVIIIDMEIGY
MVDIEALQKAIGVTSLSYDEDDDDDDENDAFYSSSHRVSHNYNQPPLPPIPTRDDMSNYSSSRNTPLVRRD
MEAESLADSGFPLEVFPQKMQSIIIDMVVHGNFKVDYVAMSMLSAASAALGNTYRIHVKQDWDTNAALYIILVGRPGMGKTPPLQLAYKPIREYERKLFDKFCHELDLYEAACATKESGSKEMKKPILKRVTLDDFTLEALVLEHYNNLRGIAINYDEILGLLANTDRYGKNPMLERLLSIWSGCHLENTRVKNDRPQRVEEPCVNIIGTTQTKRMKELMASKFMDTGFLDRILVVYPKSKKVPHWLDEEDSHVRQSEASRKWADIIGKIFGLDYARCNDTNECCPNILYMDKDAHSLFFGWWNRNVDAINAIEDDEDVETRVMKHNTHVARIALLLQALRYACGESHLQSIDVDSIEGALRLNEYCENCYQRCRAFVAEDTCDSMSKELLYLLEDSFDTKTAIKTGMENLHVTDRTVMNYIKELMKSGLITKAKKGFYEKVKFETGQATET
SLSIKTILIDDEPKAIAILKNKIERLCPDLEIVATIEKPALAFDIINELQPQLVFIDIAMPGMSGFDVLEQFKKPQFEIIFATAFDQYALDAIKQCAIGYLVKPIDNEDLVEAVTNATTNIEQKNALVKNTQLLENINQENFHKKKIVIPSTDGLEFVKVKSITHCEGVDGYTKIHFTNRKPILSSSSIGHFKKLLSHPDFYHVHKSYVTNTNHIIKYLNDGYVTLTGDVTIPVARAKRAEFLEKFRNEG
MGSDKIHHHHHHAATVAEATSNPWDNYYIGKIDFKNLSPEAKGSAIYAAVIPDPEAYITKHARKVVETLYFTPEDSIPGIEEIHYTLKEYDGVSAKDGAPPSISIVYSTKWIEKSFANNDTAKVDYETRGVLYHELTHGFQLEPQGIGSYGTNKTFWAMIEGVADAVRYLNGGFTLEDRPKGGHYMDGYRTTGFFLAWLTQTKSPDFLRKFNRSTLEVIPWSFDGGVKYALGNDYDIDSLWKEYMATMGDEA
MATDRENLLSDDYEETAAFCGCGYFRSFSFTRWRRGDDESRSRGGWSGCLQEERRGNWGSEKLKGLKEISEKIAGPKWKNFIRSFSSGRKKMRRDVDFTYDLKNYSLNFDDGGDGKDSSPERFVAPVVIKV
MPWRTALKVALAAGEAVAKALTRAVRDEIKQTQQAAARHAASTGQSASETRENANSNAKLGISLEESLQILNVKTPLNREEVEKHYEHLFNINDKSKGGTLYLQSKVFRAKERIDEEFGRIELKEEKKKEENAKTE
MMKRARIIYNPTSGRELFKRHLPDVLVRLEKAGYETSCHATEGPGDATKAARQAVLREFDLVVAAGGDGTINEVVNGIADQPYRPKLGVIPVGTTNDFARAIGVPRSIEGACEVIATGEPVPIDIGCVTNEDKTRYFINIAGGGRLTELTYEVPSKLKTMLGQLAYYLKGIEMLPSIKATEAQIEYDGKLFEGEIMMFLVSLTNSVGGFEKLAPDSSLNDGLFDFIIVKKTNLAEFIRLVTLAARGEHINDPHIIYTKANRVKVRSPMQLNLDGEFGGMLPGEFVNLYRHLEVIMPKDKAEQVRTGR
MAPRDIRPGAEYGDIIEEAIVTCKVFLIVFSETSQISRWVRSELNIGFSSNKPIIPFRIDPTDLKGSMKLMLNDKHWLNAYPNPEEKFSELAAVILDLLQHPAVDTISPPGFQPASNVASADGSNAGAQGLFGKLLNQLFVKRRVKVTSDHAAEIFLNGERKGKLDAYETGNYSVSEDFYQLEVYSCEYGKKVKCEYSGSFSNSSTVIISVDMATAEKQYLMKAKNITSGQINDLGIIFLDEGKFEDAQECFLKAASMGEAAAAYNLGMMYHFGKGVEIDYDVAREYYEEAVKSDYPLALNNLGSIYYNGHGVRKDIAKSFPYFCRAAERGVESAQFTVATMLFYGQGVAVDKAKAKKWFQKAAAQGCKDSQNYLNSWVDD
MGSDKIHHHHHHMPTRVIEDKGDMTPSFGIDDRIFLGEGLFETIRVNSSKPSFAYMHWERLGNSARQLGIPFEISFDDWFEHLIQKIQKDNLYHGGIKAILSGGPASRGLAERGQVSQLIFQTFNYSIQKHPVRLISINWLRDKANPLYQLKSVNYLEAIIAQRQAIAVGADDALFFNTENHVTETTCANLFLIENNILYTPRVEDGILPGITRARLISHCQQHKMSVQEISLTKKRIEDADAVFLTNSLQGIRRVLSLDNIIFEVNHPIIDKLIFLLNQDES
MSKPLIFAHRGVKGTHPENTMIAFQEAERIGAHGIELDVHLSKDGELVVIHDETVDRTTNGVGLVSEKTVEELQLLDAGSYKDPSFHEAKIPTLREVFIWLSTTNLQLNIELKTDVIHYPNIEEKAVALVREYHLSNQIVFSSFNHDSVSLLAEIAPEIPRAILYDTPLTDPISEAKHREASGLHPNFQLLTKEFVQLAQEQGYVFRPYTINEYKDLQTMIDYGVDVIITDWPARAFELLS
MGSDKIHHHHHHMNNLIVTPGYASQFSCIGSACEDSCCHDWTIIFDKKSYKNTLNHPKLASLAKEAFIETKTDANQWAQIKLNANGTCPFVNEQQLCAIHAAAGETALSHTCKTYPRINNVIATTKYESLSLSCPEAARLVLFDANAFQFEAKSGGAKRPTAANPAWLEKTYDYSLDLLINMGVDWQQALMAIGLLVKVSDQVRQNALPIAQIDQRFEQLILLAQTKEITAQYQKIPYTPQPQTHAFVSIHDQLCKLHSRSLKPRFTSLNEAIGLLCNEGNQYQIDHLNKAWEEKALPALSNYQDLFDRYILYSLYHEHFPMIHSQQPWMAFRLLVIDCFMIRCYLSAMAFKNNGLTESDIVLCFQLYSVVRQHKAKFAEGINQTLQECGIDSIPAAISLLKTS
MTYDLSRLTQDLPHETSEPSPKSASTLSLPPGESDQNGNTSSHEGVTPPRRRCTISRSSSIDSISGETLISEYFSSDELDKLSTALSEVTF
MIRFEQVSKAYLGGRQALQGVDFHLRPAEMAFLTGHSGAGKSTLLKLICGIERPSAGHIWFGGHDISRLKNREVPFLRRQIGMIFQDHHLLLDRTVYDNVAMPLIIAGASSEDIRRRVSAALDKVGLLDKAKNFPIQLSGGEQQRVGIARAVVNKPAVLLADEPTGNLDDALSEGILRLFEEFNRVGVTVLMATHDTSLIARRRYPILTLSQGRMSGAHHGE
MMETEVAVVPLTPLDIHNKEFSRGFRGYDEDEVNEFLDQVIKDYEMLIREKKQLEEKVAELTEKLNYFANIEETLNKSILVAQEAAEEVKRNAQKEAKLIIKEAEKNAERIISDALAKSRKIALEIEELKRQSKVFRARFRMLVEAQLDMINSRDWDELMEYEAPDLEEGAREPLSQP
